Results: article PMC5727262, “Molecular mechanism of K65 acetylation-induced attenuation of Ubc9 and the NDSM interaction” (Scientific Reports, 2017)

How the values were obtained:
Ubc9 (wild type) = Ubc9 (wild type) (UniProt P63279); experiment: ITC; 2 μl additions of peptide to 200 μl of WT Ubc9 or Ac-Ubc9K65; 25 °C; pH 8.0, 20 mM potassium phosphate, 100 mM NaCl; iTC200; fitted assuming 1:1 binding stoichiometry
[1] = molecular target: Ac-Ubc9K65 (Ubc9 acetylated at K65) (UniProt P63279); experiment: as above
Sequence of Ac-Ubc9K65 (Ubc9 acetylated at K65) (P63279 whole entry): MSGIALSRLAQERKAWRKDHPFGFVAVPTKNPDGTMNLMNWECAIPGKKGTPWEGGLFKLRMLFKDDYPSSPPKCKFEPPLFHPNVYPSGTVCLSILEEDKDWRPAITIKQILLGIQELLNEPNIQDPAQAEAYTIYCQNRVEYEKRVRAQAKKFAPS

Sequence of Ubc9 (wild type) (P63279 whole entry): as above

Kd (Ubc9 (wild type)) | Kd [1] | Substance
56 µM | 80 µM | Calpain2 NDSM peptide
70 µM | 103 µM | Elk1 NDSM peptide (from UniProt P19419 242-261)
13 µM | 13 µM | RanGAP1 peptide (consensus sumoylation motif) (from UniProt P46060 517-536)
